Data: publication PMC6203859, “Non-catalytic signaling by pseudokinase ILK for regulating cell adhesion” (Nature Communications, 2018)

Key:
[1] = target: F-actin (rabbit skeletal muscle actin, polymerised) (rabbit, UniProt P68135 1-377); assay: co-sedimentation; F-actin co-sedimentation: rabbit skeletal muscle actin polymerized with 50 mM KCl, 2 mM MgCl2, 1 mM ATP; test protein added in F-actin buffer (with 5% glycerol or no glycerol), 30 min room temperature; 150,000xg, 4 °C, 1 h; SDS-PAGE, Coomassie, densitometry; KD by curve fitting; settings: both partners purified
[2] = target: full-length human ILK (C346S; C422S), subunit of the coexpressed IPP complex (human, UniProt Q13418 1-452, C346S | C422S); assay: SEC; purified IPP complex (coexpressed in E. coli, co-purified by Ni affinity on His6-PINCH-1) on Superose 6 10/300 GL; settings: both partners purified
Chain of full-length human ILK (C346S; C422S), subunit of the coexpressed IPP complex (Q13418 whole entry C346S/C422S, one chain of several): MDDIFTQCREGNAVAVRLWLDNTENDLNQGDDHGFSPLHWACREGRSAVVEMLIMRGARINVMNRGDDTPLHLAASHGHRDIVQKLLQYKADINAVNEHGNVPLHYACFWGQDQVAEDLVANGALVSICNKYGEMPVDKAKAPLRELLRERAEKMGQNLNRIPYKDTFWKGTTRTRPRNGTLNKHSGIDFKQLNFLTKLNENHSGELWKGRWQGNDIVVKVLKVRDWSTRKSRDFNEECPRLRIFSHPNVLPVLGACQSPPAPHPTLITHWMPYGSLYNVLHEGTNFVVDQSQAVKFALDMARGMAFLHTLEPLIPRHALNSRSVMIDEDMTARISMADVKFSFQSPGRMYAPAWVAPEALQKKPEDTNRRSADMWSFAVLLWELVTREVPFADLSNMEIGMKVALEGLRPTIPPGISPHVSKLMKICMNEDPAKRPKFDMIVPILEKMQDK

B1: α-Parvin-N (N-terminal region 1–91) as used in F-actin co-sedimentation (domain or fragment)
chain: MATSPQKSPSVPKSPTPKSPPSRKKDDSFLGKLGGTLARRKKAKEVSELQEEGMNAINLPLSPIPFELDPEDTMLEENEVRTMVDPNSRSD
notes: α-Parvin, human, N-terminal region; the text defines α-Parvin-N as 1-91; the methods list a GST-fused 1-89 and a hexahistidine-tagged 1-91 form; also called WT α-Parvin; source: E. coli, purified
Kd [1]: ~21 µM

B2: α-Parvin-N 5A (L37A/R39A/R40A/K41A/K42A) as used in F-actin co-sedimentation (domain or fragment)
chain: MATSPQKSPSVPKSPTPKSPPSRKKDDSFLGKLGGTAAAAAAAKEVSELQEEGMNAINLPLSPIPFELDPEDTMLEENEVRTMVDPNSRSD
notes: α-Parvin, human, N-terminal domain, residues 1-91 (both the GST-fused and the His6-tagged 5A forms are 1-91); source: E. coli, purified
Kd [1]: ~49 µM

B3: full-length human α-Parvin, subunit of the coexpressed IPP complex (natural protein, UniProt Q9NVD7 1-372, looked up)
chain: MATSPQKSPSVPKSPTPKSPPSRKKDDSFLGKLGGTLARRKKAKEVSELQEEGMNAINLPLSPIPFELDPEDTMLEENEVRTMVDPNSRSDPKLQELMKVLIDWINDVLVGERIIVKDLAEDLYDGQVLQKLFEKLESEKLNVAEVTQSEIAQKQKLQTVLEKINETLKLPPRSIKWNVDSVHAKSLVAILHLLVALSQYFRAPIRLPDHVSIQVVVVQKREGILQSRQIQEEITGNTEALSGRHERDAFDTLFDHAPDKLNVVKKTLITFVNKHLNKLNLEVTELETQFADGVYLVLLMGLLEGYFVPLHSFFLTPDSFEQKVLNVSFAFELMQDGGLEKPKPRPEDIVNCDLKSTLRVLYNLFTKYRNVE
binding result [2]: binds
